Percent of 20SOG CPs complexed and stoichiometry N data for one substance are collected here from publication PMC9599533.

A word on the stoichiometry N: it is a count of units in the complex or per binding partner.

Several values for one entry are separate records, joined by “and”; a condition that tells them apart may be missing. Identical values can stand only once.

Assay [1] deals with M. tuberculosis open gate 20S core particle (20SOG CP) (M. tuberculosis) (UniProt P9WHU1). The assay is described as follows: cryo-EM structure.
Assay [2] deals with Mpa_(C-EXT) (mycobacterial proteasome ATPase Mpa with a GGGGS linker inserted between Thr601 and Glu (M. tuberculosis) (UniProt P9WQN5)). The assay is described as follows: cryo-EM structure.

Turning to “Mpa_(C-EXT) (mycobacterial proteasome ATPase Mpa with a GGGGS linker inserted between Thr601 and Glu (from UniProt P9WQN5 1-609) (enzyme)”, the percent of 20SOG CPs complexed in assay [1] is 50% and 40%. The same substance gave a stoichiometry N in assay [2] of 6.
